The text below walks through data of patent US20180057581A1 (MorphoSys, published 2018).

Bounds are passed on as bounds.

Test [1] has as its target T1, Recombinant human sgM-CSF (human, UniProt P09603 33-255).
T1 construct: also called human secreted glycosylated M-CSF; Human M-CSF
T1 sequence: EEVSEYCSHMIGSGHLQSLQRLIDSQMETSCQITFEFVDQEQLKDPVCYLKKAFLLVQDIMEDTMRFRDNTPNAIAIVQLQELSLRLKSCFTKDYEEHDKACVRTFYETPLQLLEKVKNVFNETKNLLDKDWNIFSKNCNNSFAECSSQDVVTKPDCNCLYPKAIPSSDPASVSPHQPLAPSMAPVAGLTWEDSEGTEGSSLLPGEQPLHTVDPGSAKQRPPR
In words: Table 12 summary, criterion Binding, Human M-CSF; assay and antibody format not named there. The protocol: The monovalent affinity of the antibodies of the present disclosure was determined by soluble equilibrium titration (Haenel et al. (2005) Anal Biochem 339, 182-4).

Test [2] deals with T1, Recombinant human sgM-CSF. In words: cell-based or functional assay.
For test [3], the target named is T2, Recombinant cynomolgus monkey sgM-CSF (cynomolgus (Macaca fascicularis), UniProt P09603 33-255 (human entry), limits assumed).
T2 chain: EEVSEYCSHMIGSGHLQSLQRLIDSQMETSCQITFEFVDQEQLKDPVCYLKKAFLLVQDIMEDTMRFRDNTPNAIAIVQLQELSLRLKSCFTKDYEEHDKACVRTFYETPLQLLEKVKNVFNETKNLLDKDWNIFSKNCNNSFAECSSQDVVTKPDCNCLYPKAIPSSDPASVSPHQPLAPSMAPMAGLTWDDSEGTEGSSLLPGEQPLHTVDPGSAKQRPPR
In words: cell-based or functional assay.

In test [4] the target is Cell surface receptor 1 (human) (human). In words: MSD specificity profiling, coated protein, Camille at 100 nM. The protocol:
(§1) For this specificity profiling test the different proteins and controls were coated on two 384-well MSD plates with a concentration of 1 μg/ml at 4° C. over night. Plates were blocked with BSA and washed three times with PBS with 0.05% (v/v) Tween 20. Antibody samples were diluted to 100 nM and 10 nM in assay buffer (PBS with 0.5% (w/v) BSA, 0.05% (v/v) Tween 20). […] Samples and controls were incubated for three hours at room temperature. The plates were washed three times and 30 μl detection antibody (ECL-labeled anti-human Fab) were added per well and incubated for 1 h. After washing, MSD Read Buffer T with surfactant was added and electrochemiluminescence signals were detected using a Sector Imager 6000 (Meso Scale Discovery, Gaithersburg, Md., USA).

Test [5] has as its target T3, RNase B (cow) (cow, UniProt P61823 27-150).
T3 sequence (looked up): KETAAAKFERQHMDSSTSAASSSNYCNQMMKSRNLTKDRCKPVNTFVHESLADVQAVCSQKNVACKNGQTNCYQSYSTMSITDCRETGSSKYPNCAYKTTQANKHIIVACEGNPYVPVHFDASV
The description is as above. The protocol:
as §1

Test [6] deals with T2, Recombinant cynomolgus monkey sgM-CSF. In words: ELISA. On the procedure: (§2) BSA was used as a negative control substrate.
(§3) After blocking of plates with 5% skim milk powder in PBS, Fab-containing E. coli lysates, IgG-containing cell culture supernatants or purified IgG or Fab proteins were added. Binding of Fabs or IgGs was detected by F(ab)₂ specific goat anti-human IgG conjugated to alkaline phosphatase (Dianova Cat# 109-055-097; diluted 1:5000) using Attophos fluorescence substrate (Roche, #11681982001). Fluorescence emission at 535 nm was recorded with excitation at 430 nm.

Test [7] deals with T4, human M-CSF (human, UniProt P09603 33-255, limits assumed).
T4 construct: also called M-CSF (human); CSF-1
T4 sequence: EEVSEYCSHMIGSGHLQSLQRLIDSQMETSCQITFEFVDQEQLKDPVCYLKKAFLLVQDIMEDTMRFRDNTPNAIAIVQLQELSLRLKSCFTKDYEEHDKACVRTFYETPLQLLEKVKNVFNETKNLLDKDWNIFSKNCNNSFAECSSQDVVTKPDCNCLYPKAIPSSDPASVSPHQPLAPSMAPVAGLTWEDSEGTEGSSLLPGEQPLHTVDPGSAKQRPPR
In words: ELISA. On the procedure: as §2, §3

The target in test [8] is T2, Recombinant cynomolgus monkey sgM-CSF. In words: Table 12 summary, criterion Binding, Cynomolgus M-CSF; assay and antibody format not named there.

B1: Camille (format not stated) (antibody, V domains shown)
VH: QVQLQQSGPGLVKPSQTLSLTCAISGESVSTSSAAWNWIRQSPSRGLEWLGRTYYRSKWKHEYAVSVKSRITINPDTSKNQFSLQLNSVTPEDTAVYYCARDRYYYSAFDYWGQGTLVTVSS
VL: QSALTQPASVSGSPGQSITISCTGTSSDVGGYNSVSWYQQHPGKAPKLLIYAVSNRPSGVSNRFSGSKSGNTASLTISGLQAEDEADYYCASYDERFTRVFGGGTKLTVLG
notes: also called Antibody Camille
Turning to B1, the Kd worked out at 18 pM in test [1] and 25 pM in test [8]. Besides, the “Cell viability assay (IC50), Human M-CSF” value in test [2] came out at 2 pM. For the same molecule, the “Cell viability assay (IC50), Cynomolgus M-CSF” value in test [3] was determined as 3 pM. The “signal normalized to reference antibody MOR03207” value in test [4] and in test [5] was 1 ratio each time. Also, the ELISA fluorescence units in test [6] and in test [7] was above 35000 units each time.
